In US20110200590A1:
Values belong to the molecule of their own block, whether it stands above or below them.

How the values were obtained:
Assay in all cases: cell-based or functional assay
[1] = target: FcRI (CD64), high affinity immunoglobulin gamma Fc receptor I, on human monocytes (human) (UniProt P12314)
[2] = target: Interleukin-10 (IL-10) released by human monocytes (human) (UniProt P22301)
[3] = target: anti-MBP (105-120) monoclonal IgM Mab 1, clone DM1A2C1

Sequence of UniProt P12314 (P12314 16-374 limits assumed, form in doubt): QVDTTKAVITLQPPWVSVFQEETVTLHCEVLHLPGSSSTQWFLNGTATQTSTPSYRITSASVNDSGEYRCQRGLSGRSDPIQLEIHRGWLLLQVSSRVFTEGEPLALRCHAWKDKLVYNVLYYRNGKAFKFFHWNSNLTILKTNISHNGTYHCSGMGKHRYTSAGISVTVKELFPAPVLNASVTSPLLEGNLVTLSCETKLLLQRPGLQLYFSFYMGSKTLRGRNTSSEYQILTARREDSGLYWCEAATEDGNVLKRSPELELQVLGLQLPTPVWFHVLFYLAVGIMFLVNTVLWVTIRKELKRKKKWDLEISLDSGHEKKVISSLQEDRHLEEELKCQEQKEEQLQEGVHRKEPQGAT
Sequence of UniProt P22301 (P22301 19-178 limits assumed): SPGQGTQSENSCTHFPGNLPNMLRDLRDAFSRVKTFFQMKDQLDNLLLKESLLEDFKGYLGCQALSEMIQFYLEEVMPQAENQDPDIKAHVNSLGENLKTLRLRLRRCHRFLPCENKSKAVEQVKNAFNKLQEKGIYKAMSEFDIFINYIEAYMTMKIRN

% inhibition of proliferation of human MBP+-T cells (T + PBM + Mab CD64) [1]: 100% | % inhibition of proliferation of human MBP+-T line (T + PBM + Mab CD64) [1]: 98% | Levels of IL-10 in the supernatants of human monocytes (MNC + Mab CD64) [1]: 3950 pg/mL | Levels of IL-10 in the supernatants of human monocytes activated with LPS (MNC + LPS + Mab CD64) [1]: 6360 pg/mL
Molecule: mouse monoclonal antibody anti-human CD64, IgG1 (Ancell)

% inhibition of proliferation of human MBP+-T line by Mab 1 in the presence of Mab IL-10 (T + PBM + Mab 1 + Mab IL-10) [2]: 0% | % inhibition of proliferation of human MBP+-T line by Mab CD64 in the presence of Mab IL-10 (T + PBM + Mab CD64 + Mab IL-10) [2]: 0%
Molecule: neutralising monoclonal antibody anti-human IL-10 (R&D Systems)

% inhibition of proliferation of human MBP+-T cells by Mab 1 in the presence of pep 2 (T + PBM + Mab 1 + pep 2) [3]: 98%
Molecule: QFLGSYL [“scrambled” peptide (QFLGSYL Seq ID no 5)]

% inhibition of proliferation of human MBP+-T cells by Mab 1 in the presence of pep 1 (T + PBM + Mab 1 + pep 1) [3]: 0%
Molecule: GLQLYFS [peptide 222-228 CD64 (GLQLYFS)]
